Laboratory results as given in US5198419A, “Formulated medicines for enhancing the efficacy of beta-lactam antibiotics in prophylaxis and treatment against infectious disease due to pathogenic bacteria” (Immuno Japan Inc., priority 1989, dated 1993).

Tests used:
[1] = system: Kleb. pneumoniae IFO 3512; assay: MIC of apolactoferrin on agar-plate medium; assay type: cell-based, Klebsiella pneumoniae
Excerpt: (§1) The minimum inhibitory concentration of apolactoferrin against
(§2) bacteria on the agar-plate medium.

Kleb. pneumoniae 3K25 = assay: MIC of apolactoferrin on agar-plate medium; assay type: cell-based, Klebsiella pneumoniae
Excerpt: as §1, §2

[2] = system: Kleb. pneumoniae ATCC 10031; assay: MIC of apolactoferrin on agar-plate medium; assay type: cell-based, Klebsiella pneumoniae
Excerpt: as §1, §2

most pathogenic bacteria = assay: Antibacterial activity of apolactoferrin in vitro, most bacteria; assay type: cell-based; details: most of the bacteria
Excerpt: (§3) Therefore, even though the lactoferrins have very weak antibacterial activity in vitro, it is questionable that they exert direct antibacterial activity against bacteria infecting mammals.
as §1, §2

[3] = system: Ser. marcescens IFO 12648; assay: MIC of apolactoferrin on agar-plate medium; assay type: cell-based, Serratia marcescens
Excerpt: as §1, §2

[4] = system: St. epidermidis ATCC 13288; assay: MIC of apolactoferrin on agar-plate medium; assay type: cell-based, Streptococcus epidermidis
Excerpt: as §3, §1, §2

Pseu. aeruginosa TMS 11 = assay: MIC of apolactoferrin on agar-plate medium; assay type: cell-based, Pseudomonas aeruginosa
Excerpt: as §1, §2

[5] = system: Pseu. aeruginosa IFO 3445; assay: MIC of apolactoferrin on agar-plate medium; assay type: cell-based, Pseudomonas aeruginosa
Excerpt: as §1, §2

Pseu. aeruginosa No. 11 = assay: MIC of apolactoferrin on agar-plate medium; assay type: cell-based, Pseudomonas aeruginosa
Excerpt: as §1, §2

Pseu. aeruginosa No. 47 = assay: MIC of apolactoferrin on agar-plate medium; assay type: cell-based, Pseudomonas aeruginosa
Excerpt: as §1, §2

bacteria = details: iron-free lactoferrin; previous studies; cited from earlier work
Proteus vulgaris GN76 = assay: MIC of apolactoferrin on agar-plate medium; assay type: cell-based
Excerpt: as §1, §2

[6] = system: Staphylococcus aureus Smith; assay: MIC of apolactoferrin on agar-plate medium; assay type: cell-based
Excerpt: as §1, §2

Escherichia coli No 35 = assay: MIC of apolactoferrin on agar-plate medium; assay type: cell-based
Excerpt: as §1, §2

Serratia marcescens No 2 = assay: MIC of apolactoferrin on agar-plate medium; assay type: cell-based
Excerpt: as §1, §2

Escherichia coli C11 = assay: MIC of apolactoferrin on agar-plate medium; assay type: cell-based
Excerpt: as §1, §2

Proteus mirabilis 1287 = assay: MIC of apolactoferrin on agar-plate medium; assay type: cell-based
Excerpt: as §1, §2

Shigella sonnei = assay: MIC of apolactoferrin on agar-plate medium; assay type: cell-based
Excerpt: as §1, §2

[7] = system: Proteus vulgaris IFO 3851; assay: MIC of apolactoferrin on agar-plate medium; assay type: cell-based
Excerpt: as §1, §2

[8] = system: Micrococcus lutens ATCC 9341; assay: MIC of apolactoferrin on agar-plate medium; assay type: cell-based
Excerpt: as §1, §2

[9] = system: Serratia marcescens No 78; assay: MIC of apolactoferrin on agar-plate medium; assay type: cell-based
Excerpt: as §1, §2

[10] = system: Staphylococcus aureus 227; assay: MIC of apolactoferrin on agar-plate medium; assay type: cell-based
Excerpt: as §1, §2

Shigella flexineri = assay: MIC of apolactoferrin on agar-plate medium; assay type: cell-based
Excerpt: as §1, §2

[11] = system: Bacillus subtilis ATCC 6633; assay: MIC of apolactoferrin on agar-plate medium; assay type: cell-based
Excerpt: as §1, §2

Salmonella paratyphi B = assay: MIC of apolactoferrin on agar-plate medium; assay type: cell-based
Excerpt: as §1, §2

Pr. inconstans IFO 12930 = assay: MIC of apolactoferrin on agar-plate medium; assay type: cell-based
Excerpt: as §1, §2

[12] = system: Citrobacter freundii GN 346; assay: MIC of apolactoferrin on agar-plate medium; assay type: cell-based
Excerpt: as §1, §2

Salmonella typhi = assay: MIC of apolactoferrin on agar-plate medium; assay type: cell-based
Excerpt: as §1, §2

Enterobacter feacalis 64 = assay: MIC of apolactoferrin on agar-plate medium; assay type: cell-based
Excerpt: as §1, §2

Proteus mirabilis GN79 = assay: MIC of apolactoferrin on agar-plate medium; assay type: cell-based
Excerpt: as §1, §2

Pr. rettgeri GN624 = assay: MIC of apolactoferrin on agar-plate medium; assay type: cell-based
Excerpt: as §1, §2

[13] = system: Enterobacter cloacae No 91; assay: MIC of apolactoferrin on agar-plate medium; assay type: cell-based
Excerpt: as §1, §2

[14] = system: Pseudomonas aeruginosa E 7; assay: MIC of apolactoferrin on agar-plate medium; assay type: cell-based
Excerpt: as §1, §2

Pr. morganii IFO 3848 = assay: MIC of apolactoferrin on agar-plate medium; assay type: cell-based
Excerpt: as §1, §2

Klebsiella oxytoca 1006 = assay: MIC of apolactoferrin on agar-plate medium; assay type: cell-based
Excerpt: as §1, §2

Pr. morganii GN125 = assay: MIC of apolactoferrin on agar-plate medium; assay type: cell-based
Excerpt: as §1, §2

Citrobacter freundii 2 = assay: MIC of apolactoferrin on agar-plate medium; assay type: cell-based
Excerpt: as §1, §2

[15] = system: Staphylococcus aureus 209p; assay: MIC of apolactoferrin on agar-plate medium; assay type: cell-based
Excerpt: as §1, §2

Vibrio cholerae 569B = assay: MIC of apolactoferrin on agar-plate medium; assay type: cell-based
Excerpt: as §1, §2

[16] = system: Klebsiella pneumoniae GN69; assay: MIC of apolactoferrin on agar-plate medium; assay type: cell-based
Excerpt: as §1, §2

Pr. inconstans GN 627 = assay: MIC of apolactoferrin on agar-plate medium; assay type: cell-based
Excerpt: as §1, §2

Salmonella paratyphi A = assay: MIC of apolactoferrin on agar-plate medium; assay type: cell-based
Excerpt: as §1, §2

Pr. rettgeri IFO 13501 = assay: MIC of apolactoferrin on agar-plate medium; assay type: cell-based
Excerpt: as §1, §2

[17] = system: Escherichia coli NIHJ JC-2; assay: MIC of apolactoferrin on agar-plate medium; assay type: cell-based
Excerpt: as §1, §2

[18] = system: Enterobacter feacalis 95-1; assay: MIC of apolactoferrin on agar-plate medium; assay type: cell-based
Excerpt: as §1, §2

B1: apolactoferrin: iron-free lactoferrin, from bovine milk (protein, UniProt P24627 20-708, looked up)
Lactotransferrin: APRKNVRWCTISQPEWFKCRRWQWRMKKLGAPSITCVRRAFALECIRAIAEKKADAVTLDGGMVFEAGRDPYKLRPVAAEIYGTKESPQTHYYAVAVVKKGSNFQLDQLQGRKSCHTGLGRSAGWIIPMGILRPYLSWTESLEPLQGAVAKFFSASCVPCIDRQAYPNLCQLCKGEGENQCACSSREPYFGYSGAFKCLQDGAGDVAFVKETTVFENLPEKADRDQYELLCLNNSRAPVDAFKECHLAQVPSHAVVARSVDGKEDLIWKLLSKAQEKFGKNKSRSFQLFGSPPGQRDLLFKDSALGFLRIPSKVDSALYLGSRYLTTLKNLRETAEEVKARYTRVVWCAVGPEEQKKCQQWSQQSGQNVTCATASTTDDCIVLVLKGEADALNLDGGYIYTAGKCGLVPVLAENRKSSKHSSLDCVLRPTEGYLAVAVVKKANEGLTWNSLKDKKSCHTAVDRTAGWNIPMGLIVNQTGSCAFDEFFSQSCAPGADPKSRLCALCAGDDQGLDKCVPNSKEKYYGYTGAFRCLAEDVGDVAFVKNDTVWENTNGESTADWAKNLNREDFRLLCLDGTRKPVTEAQSCHLAVAPNHAVVSRSDRAAHVKQVLLHQQALFGKNGKNCPDKFCLFKSETKNLLFNDNTECLAKLGGRPTYEEYLGTEYVTAIANLKKCSTSPLLEACAFLTR
modifications: iron-free
notes: iron-free lactoferrin, from bovine milk
In the case of B1, the “Minimum Inhibitory Conc.” value [1] is reported as > 6,400 μg/ml, the “Minimum Inhibitory Conc.” value (Kleb. pneumoniae 3K25) is reported as > 6,400 μg/ml and the “Minimum Inhibitory Conc.” value [2] is reported as > 6,400 μg/ml. The minimum inhibitory concentrations (most pathogenic bacteria) was “more than 6,400 μg/ml”, the “Minimum Inhibitory Conc.” value [3] was > 6,400 μg/ml and the “Minimum Inhibitory Conc.” value [4] was 800 µg/mL. For the same molecule, the “Minimum Inhibitory Conc.” value (Pseu. aeruginosa TMS 11) was > 6,400 μg/ml, the “Minimum Inhibitory Conc.” value [5] was > 6,400 μg/ml and the “Minimum Inhibitory Conc.” value (Pseu. aeruginosa No. 11) was > 6,400 μg/ml. The “Minimum Inhibitory Conc.” value (Pseu. aeruginosa No. 47) was > 6,400 μg/ml, the “antibacterial activity by degree of iron saturation” value (bacteria) was “the most potent” and the “Minimum Inhibitory Conc.” value (Proteus vulgaris GN76) was > 6,400 μg/ml. For the same molecule, the “Minimum Inhibitory Conc.” value [6] was > 6,400 μg/ml, the “Minimum Inhibitory Conc.” value (Escherichia coli No 35) was 1,600 μg/ml and the “Minimum Inhibitory Conc.” value (Serratia marcescens No 2) was > 6,400 μg/ml. For the same molecule, the “Minimum Inhibitory Conc.” value (Escherichia coli C11) was > 6,400 μg/ml, the “Minimum Inhibitory Conc.” value (Proteus mirabilis 1287) was 3,200 μg/ml and the “Minimum Inhibitory Conc.” value (Shigella sonnei) was > 6,400 μg/ml. The “Minimum Inhibitory Conc.” value [7] was > 6,400 μg/ml, the “Minimum Inhibitory Conc.” value [8] was > 6,400 μg/ml and the “Minimum Inhibitory Conc.” value [9] was > 6,400 μg/ml. The “Minimum Inhibitory Conc.” value [10] was > 6,400 μg/ml, the “Minimum Inhibitory Conc.” value (Shigella flexineri) was > 6,400 μg/ml and the “Minimum Inhibitory Conc.” value [11] was 3,200 μg/ml. For the same molecule, the “Minimum Inhibitory Conc.” value (Salmonella paratyphi B) was > 6,400 μg/ml, the “Minimum Inhibitory Conc.” value (Pr. inconstans IFO 12930) was > 6,400 μg/ml and the “Minimum Inhibitory Conc.” value [12] was > 6,400 μg/ml. The “Minimum Inhibitory Conc.” value (Salmonella typhi) was > 6,400 μg/ml, the “Minimum Inhibitory Conc.” value (Enterobacter feacalis 64) was 3,200 μg/ml and the “Minimum Inhibitory Conc.” value (Proteus mirabilis GN79) was > 6,400 μg/ml. The “Minimum Inhibitory Conc.” value (Pr. rettgeri GN624) was 6,400 μg/ml, the “Minimum Inhibitory Conc.” value [13] was > 6,400 μg/ml and the “Minimum Inhibitory Conc.” value [14] was > 6,400 μg/ml. The “Minimum Inhibitory Conc.” value (Pr. morganii IFO 3848) was > 6,400 μg/ml, the “Minimum Inhibitory Conc.” value (Klebsiella oxytoca 1006) was > 6,400 μg/ml and the “Minimum Inhibitory Conc.” value (Pr. morganii GN125) was 3,200 μg/ml. The “Minimum Inhibitory Conc.” value (Citrobacter freundii 2) was > 6,400 μg/ml, the “Minimum Inhibitory Conc.” value [15] was > 6,400 μg/ml and the “Minimum Inhibitory Conc.” value (Vibrio cholerae 569B) was 3,200 μg/ml. For the same molecule, the “Minimum Inhibitory Conc.” value [16] was > 6,400 μg/ml, the “Minimum Inhibitory Conc.” value (Pr. inconstans GN 627) was > 6,400 μg/ml and the “Minimum Inhibitory Conc.” value (Salmonella paratyphi A) was > 6,400 μg/ml. For the same molecule, the “Minimum Inhibitory Conc.” value (Pr. rettgeri IFO 13501) was 3,200 μg/ml, the “Minimum Inhibitory Conc.” value [17] was 3,200 μg/ml and the “Minimum Inhibitory Conc.” value [18] was 3,200 μg/ml.
